Test results from the RNAGym collection of RNA variant scans (doi:10.7554/elife.80360).

B1: HDV Ribozyme (parent)
chain: GGCCGGCAUGGUCCCAGCCUCCUCGCUGGCGCCGGCUGGGCAACAUUCCGAGGGGACCGUCCCCUCGGUAAUGGCGAAUGGGACCCA

Variants of: B1
Experiment: self-cleavage, relative activity (ratio to wild type); higher = more cleavage; co-transcriptional
With C57G C84A the self-cleavage was 0.933.
C57A G59A gave a self-cleavage of 1.04.
With C57A G59C the self-cleavage was 0.923.
C57A G59U showed a self-cleavage of 1.11.
C57A G67C gave a self-cleavage of 1.05.
A56C C62G gave a self-cleavage of 0.458.
With A56C C62U the self-cleavage was 1.02.
With A56U G81A the self-cleavage was 0.492.
G55C C63U showed a self-cleavage of 0.808.
Variant A56U G68U has a self-cleavage of 1.01.
For A56U G68A, the self-cleavage was 0.819.
In the case of C57U C66U, the self-cleavage is reported as 0.87.
In the case of C57G G82U, the self-cleavage is reported as 0.317.
For C57G G82C, the self-cleavage was 0.306.
Variant G55U A77U has a self-cleavage of 0.453.
For G55U A77G, the self-cleavage was 0.607.
For A56U C62A, the self-cleavage was 1.05.
A56U C62U showed a self-cleavage of 0.847.
In the case of G55U C84G, the self-cleavage is reported as 0.546.
Work on G55U C84U yielded a self-cleavage of 0.743.
With G55U G73U the self-cleavage was 0.295.
Variant G55U G73C has a self-cleavage of 0.499.
C57G G76C showed a self-cleavage of 0.895.
C57G G76U gave a self-cleavage of 0.984.
In the case of C57G G76A, the self-cleavage is reported as 1.04.
Work on C57G U60G yielded a self-cleavage of 0.95.
For A56U A87C, the self-cleavage was 0.963.
A56U A87U gave a self-cleavage of 1.08.
In the case of G55C C64G, the self-cleavage is reported as 0.953.
In the case of G55C C64U, the self-cleavage is reported as 1.12.
Work on C57G G74A yielded a self-cleavage of 0.277.
C57G G74U showed a self-cleavage of 0.388.
In the case of C57G G73C, the self-cleavage is reported as 0.495.
C57G G73A gave a self-cleavage of 0.658.
Work on C57G C62G yielded a self-cleavage of 0.87.
Variant C57G C62U has a self-cleavage of 1.03.
Variant A56U G76A has a self-cleavage of 0.939.
With G55U C85U the self-cleavage was 0.92.
G55U C85G gave a self-cleavage of 0.927.
Variant G55U C85A has a self-cleavage of 1.09.
G55U C58U gave a self-cleavage of 1.05.
With A56C G68U the self-cleavage was 1.08.
Variant A56C G68A has a self-cleavage of 1.11.
In the case of A56C C58A, the self-cleavage is reported as 0.923.
Variant A56C G80A has a self-cleavage of 0.292.
A56C G80C gave a self-cleavage of 0.189.
G55U G82C gave a self-cleavage of 0.233.
For G55U G82U, the self-cleavage was 0.426.
C57U C63A showed a self-cleavage of 1.01.
For C57A G68A, the self-cleavage was 0.819.
C57A G68U gave a self-cleavage of 1.14.
Work on C57G C75G yielded a self-cleavage of 0.185.
Work on C57G C75U yielded a self-cleavage of 0.271.
In the case of C57G C75A, the self-cleavage is reported as 0.287.
Variant C57A C84U has a self-cleavage of 0.935.
C57A A71C showed a self-cleavage of 0.866.
With C57G A87C the self-cleavage was 0.98.
For C57G A87G, the self-cleavage was 0.86.
With C57A G82C the self-cleavage was 0.298.
For C57A G82A, the self-cleavage was 0.554.
For C57A A87G, the self-cleavage was 1.07.
G55U C64U gave a self-cleavage of 1.05.
C57U C84U gave a self-cleavage of 0.856.
In the case of C57U C84A, the self-cleavage is reported as 0.748.
Variant A56C U69C has a self-cleavage of 1.09.
A56C U69G gave a self-cleavage of 0.987.
Variant A56C U69A has a self-cleavage of 0.776.
For A56U U60G, the self-cleavage was 1.07.
For A56U U60A, the self-cleavage was 1.13.
Variant G55U G74A has a self-cleavage of 0.668.
In the case of G55A U65G, the self-cleavage is reported as 1.09.
A56C U65C showed a self-cleavage of 1.33.
Work on A56U G59C yielded a self-cleavage of 1.01.
In the case of G55U G59A, the self-cleavage is reported as 1.14.
With C57A G81C the self-cleavage was 0.181.
Variant C57A G81U has a self-cleavage of 0.397.
Variant C57A G81A has a self-cleavage of 0.339.
Work on A56G U60C yielded a self-cleavage of 1.21.
A56G U60A showed a self-cleavage of 0.914.
For G55U A70U, the self-cleavage was 1.02.
Variant C57A U60G has a self-cleavage of 0.831.
Variant G55U C57U has a self-cleavage of 1.11.
With G55U C57A the self-cleavage was 1.12.
